Measurements from paper PMC2112417.

What was measured:
[1] = target: EGF receptor on Swiss mouse 3T3 cells (mouse (endogenous in Swiss 3T3)) (UniProt Q01279); assay: radioligand binding
[2] = target: PDGF receptor on Swiss mouse 3T3 cells (mouse (endogenous in Swiss 3T3)) (UniProt P05622); assay: radioligand binding
Sequence of UniProt P05622 (P05622 32-1098): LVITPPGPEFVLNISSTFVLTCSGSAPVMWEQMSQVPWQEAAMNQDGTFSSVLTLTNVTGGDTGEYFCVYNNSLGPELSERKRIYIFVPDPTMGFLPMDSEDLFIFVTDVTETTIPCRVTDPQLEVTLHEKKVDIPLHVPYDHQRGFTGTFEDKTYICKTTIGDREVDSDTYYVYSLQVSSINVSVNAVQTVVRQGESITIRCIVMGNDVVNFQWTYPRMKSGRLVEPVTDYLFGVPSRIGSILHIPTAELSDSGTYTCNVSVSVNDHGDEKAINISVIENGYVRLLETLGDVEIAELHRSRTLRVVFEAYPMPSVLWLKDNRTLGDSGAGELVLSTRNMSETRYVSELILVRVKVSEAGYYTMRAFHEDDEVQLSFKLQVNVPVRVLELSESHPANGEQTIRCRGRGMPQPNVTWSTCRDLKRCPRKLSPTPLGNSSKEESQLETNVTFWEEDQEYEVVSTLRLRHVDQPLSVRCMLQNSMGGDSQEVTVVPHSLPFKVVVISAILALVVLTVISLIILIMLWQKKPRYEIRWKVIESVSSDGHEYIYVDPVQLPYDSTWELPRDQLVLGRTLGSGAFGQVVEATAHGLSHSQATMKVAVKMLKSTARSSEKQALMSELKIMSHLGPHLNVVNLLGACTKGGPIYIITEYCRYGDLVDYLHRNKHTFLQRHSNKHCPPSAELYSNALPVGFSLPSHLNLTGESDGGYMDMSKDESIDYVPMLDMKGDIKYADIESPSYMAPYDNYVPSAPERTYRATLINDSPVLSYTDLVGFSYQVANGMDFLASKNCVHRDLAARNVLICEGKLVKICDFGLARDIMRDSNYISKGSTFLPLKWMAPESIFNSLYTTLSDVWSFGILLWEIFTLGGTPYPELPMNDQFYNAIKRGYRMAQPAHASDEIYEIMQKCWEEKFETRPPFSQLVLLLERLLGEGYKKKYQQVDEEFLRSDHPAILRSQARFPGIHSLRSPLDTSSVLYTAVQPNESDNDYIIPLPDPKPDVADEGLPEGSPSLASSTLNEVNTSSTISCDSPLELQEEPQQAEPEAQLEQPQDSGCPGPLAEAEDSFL

Row | % of prebound ligand removed by 3 min 0.1% acetic acid [1] | EC50 [1] | binding to acid-treated cultures, % of binding to untreated cultures [1] | decrease in 125I-EGF binding after preincubation with 2 ng/ml PDGF [1] | half-maximal binding after preincubation with 0.5 ng/ml PDGF [1] | half-maximal binding after preincubation with 10 ng/ml PDGF [1] | binding to acid-treated cultures, % of binding to untreated cultures [2] | Substance
1 | 78% | 1.3 nM | 101% | 60% | 1.6 nM | 2 nM | – | 125I-epidermal growth factor (ligand)
2 | – | – | – | – | – | – | 103% | 125I-platelet-derived growth factor (from UniProt P04085 87-211; P01127 82-190) (ligand)
